Drawing on publication PMC2699158, this text covers Kd for one substance.

This experiment has as its target taxol-stabilized microtubules. Briefly: co-sedimentation.

pKd: −log10 of the molar value. Where only a bound is given, the exact number is not on record here.

For the substance “6×His-CLASP2(340–650), wild type (from UniProt O75122-3 340-650) (domain or fragment)”, the negative logarithm of the Kd (pKd) is more than 6.52.

Broadly, the pKd is the negative decadic logarithm of the Kd, by convention in mol/L. Higher therefore signals a small Kd.
